The subject of this experiment is MCF10A cells. Put plainly: morphological epithelial to mesenchymal transition in transfected MCF10A cells. It is filed as cell-based. The following applies: MCF10A cells transfected with RPTPβ/ζ and ALK, stimulated with PTN. The method, then:
FIG. 4: FIG. 4 illustrates in: (A), β-catenin phosphorylated by ALK at tyrosine 333 decreases the association of β-catenin with cadherin. Recombinant E-cadherin serine 692 was phosphorylated with CK2 and GSK3β and incubated with recombinant GST-β-catenin, with GST-β-catenin phosphorylated in vitro by ALK, with GST-β-catenin Y333F, or with GST-β-catenin K292A, Y333F, K335A. The GST-conjugated proteins were captured with glutathione-conjugated beads and the phospho-Ser692-E-cadherin that associated with the GST-conjugated proteins was eluted and analyzed in Western blots probed with anti-β-catenin and anti-E-cadherin antibodies. […] After incubation for 20 minutes at 37° C., β-catenin was then captured with glutathione beads and, after extensive washing, eluted with SDS buffer and analyzed in Western blots with either anti-pan-cadherin antibodies, anti-phospho-tyrosine antibodies, or anti-β-catenin antibodies to determine if β-catenin phosphorylated by ALK at tyrosine 333 associates with cadherin. […] The ratio of cells dissociated in calcium-containing media (NTC) vs. the cells dissociated in calcium-free media (NTE) (a “dissociation index,” see Experimental Procedures) was measured. […] The morphological appearance was then analyzed 36 hours later and compared with cells transfected with an equal amount of control empty vector. […]

B1: pleiotrophin (protein, UniProt P21246 33-168, looked up)
Pleiotrophin: GKKEKPEKKVKKSDCGEWQWSVCVPTSGDCGLGTREGTRTGAECKQTMKTQRCKIPCNWKKQFGAECKYQFQAWGECDLNTALKTRTGSLKRALHNAECQKTVTISKPCGKLTKPKPQAESKKKKKEGKKQEKMLD
With B1, the cell morphology result is “assumed a mesenchymal fibroblast-like shape”.

For the origin of these results see patent US20210009673A1, “METHODS FOR REGULATING BREAST CANCERS” (priority 2018, published 2021).
